Experiment [1] deals with T1, Rhesus macaque EGFR Protein, His Tag (Acro, Cat #EGR-C52H1) (rhesus macaque, UniProt P55245 25-645).
T1 construct: extracellular domain; Bought protein; also called Monkey EGFR; not shown: His tag
Kind of experiment: ELISA, coated antigen 1 ug/mL, antibody 50 nM. The procedure:
(§1) ELISA was used to identify the binding of VHH-IgG4 antibodies to the extracellular domains of mouse EGFR, monkey EGFR, and human EGFR proteins. The detection steps were as follows: Mouse EGFR Protein, His Tag (Acro, Cat #EGR-M5224) and Rhesus macaque EGFR Protein, His Tag (Acro, Cat #EGR-C52H1) were diluted to 1 μg/mL with phosphate buffer, and 100 μL of each dilution was added to a 96-well ELISA plate and coated overnight at 4° C. The next day, the plates were washed twice with PBST (containing 0.5% TWEEN-20) and then blocked with 3% BSA at 37° C. for 1.5 h, followed by two washes with PBST. VHH-IgG4 antibodies were diluted to 50 nM, and 100 μL of the dilution was added to each well and incubated at 37° C. for 1 h. The plates were then washed three times with PBST, and 100 μL of HRP-labeled goat anti-human IgG Fc antibody (1:10000, Bethyl) was added to each well and incubated at 37° C. for another 40 min. After washing the plates four times with PBST, 100 μL of TMB substrate was added to each well, and the reaction was allowed to proceed for 3-5 min. The reaction was stopped by adding 100 μL of 3N hydrochloric acid per well. After stopping the reaction, the optical density at 450/650 nm was measured using a Tecan microplate reader.
In general terms: An ELISA detects its analyte on a solid surface through an enzyme-linked reagent.

Experiment [2] concerns the target T2, Mouse EGFR Protein, His Tag (Acro, Cat #EGR-M5224) (mouse, UniProt Q01279 25-647).
T2 construct: extracellular domain; Bought protein; not shown: His tag
Kind of experiment: ELISA, coated antigen 1 ug/mL, antibody 50 nM. The procedure:
as §1

Experiment [3] deals with T3, EGFR on SKOV3 and Aspc-1 tumor cells (human, UniProt P00533).
T3 construct: endogenous, on the cell surface; the cell line is named under assay; also called tumor cell EGFR
As to the kind of experiment: flow cytometry on SKOV3 tumor cells, anti-human IgG PE, MFI, curve fit; unit from the concentration axis and paragraph 62; the curve still rises at the highest concentration (MFI about 9700 at about 250 nM) [table]. The procedure:
(§2) Two kinds of tumor cells, SKOV3 and Aspc-1, expressing EGFR were respectively plated in 96 well plates, with 3×10⁵ cells per well, and then the tumor cells were incubated with gradient diluted VHH-IgG4 antibody. After incubation on ice for half an hour, anti human IgG PE (Jackson Immuno Research, Code: 109-117-008, Lot:145501) was added for incubation, and then CytoFLEX flow cytometry was used for detection. The EC50 of the antibody was calculated by curve fitting.
(In general: Flow cytometry measures light scatter and fluorescence of single cells or particles in a stream.)

Experiment [4] addresses T4, human EGFR.His antigen (Acro, Cat #EGR-H522a) (human, UniProt P00533 25-645).
T4 construct: extracellular domain; Bought protein; also called EGFR his tag protein; full-length EGFR extracellular domain protein; not shown: His tag
As to the kind of experiment: SPR, antibody captured on protein A, EGFR.His in flow. The procedure: The binding kinetics and affinity of candidate antibody to human EGFR.His antigen were determined using surface plasmon resonance (SPR). The purified antibody was flowed through the sensor chips pre-immobilized with protein A, and the antibody was captured by protein A. Then five different concentrations of EGFR.His protein were used as the mobile phase, and the binding time and dissociation time were […], respectively. The binding rate (kon), dissociation rate (koff), and equilibrium constant (kD) were analyzed using Biacore Evaluation Software 2.0 (GE). EC225, an antibody that binds to region III of human EGFR, was selected as a positive control (sequence source https.//go.drugbank.com/drugs/DB00002).

The target in experiment [5] is T5, Region III of EGFR expressed on HEK293T cells (human, UniProt P00533).
T5 construct: also called HEK293T EGFR-III cells; stably transformed cell line 293T overexpressing EGFR III region protein
Kind of experiment: flow cytometry on HEK293T cells expressing EGFR region III, anti-human IgG PE, MFI, curve fit; unit from the concentration axis and paragraph 62 [table]. As to the method: HEK293T cells that express Region III of EGFR (i.e., HEK293T […] cells) were plated in a 96-well plate with 3×10⁵ cells/well, and then HEK293T […] cells were incubated with gradient diluted VHH-IgG4 antibody. After incubation for half an hour, anti-human IgG PE (Jackson Immuno Research, Code: 109-117-008, Lot:145501) as the secondary antibody for detection was added for incubation, and then CytoFLEX flow cytometer was used for detection. The EC50 of the antibody was calculated by curve fitting with Graphprism8.0 software. Isotype 1 in the figure is a negative control, and its amino acid sequence is shown as SEQ ID NO: 2 in CN106046152A.

Experiment [6] concerns the target T3, EGFR on SKOV3 and Aspc-1 tumor cells. Kind of experiment: flow cytometry on Aspc-1 tumor cells, anti-human IgG PE, MFI, curve fit; unit from the concentration axis and paragraph 62; the curve still rises at the highest concentration (MFI about 9000 at about 250 nM) [table]. The procedure: as §2
In experiment [7] the target is T6, EGFR-D1D2 (L25-A310, P00533-1 (uniprot)) his tag antigen (human, UniProt P00533 25-310).
T6 construct: range 25-310; also called I+II domain protein; EGFR-D1D2 protein; not shown: His tag
Kind of experiment: ELISA: EGFR-D1D2 his tag antigen coated at 0.5 µg/mL, antibody at 2000, 200, 20, 2 nM, HRP goat anti-human IgG Fc, OD450. As to the method:
(§3) (2) Protein Binding Epitope Analysis: ELISA was used to determine the binding of VHH-IgG4 antibody to each domain of EGFR extracellular protein. Briefly, EGFR his tag protein, and EGFR-V3-his tag antigen protein were diluted to 1 μg/mL, EGFR-D1D2 (L25-A310, P00533-1 (uniprot)), and EGFR-D4 (F481-S645, P00533-1 (uniprot)) his tag antigen were diluted to 0.5 μg/mL, and each well of an ELISA plate was coated with […] antigen and incubated overnight at 4° C. The next day, the plates were washed twice with PBST (added with 0.5% TWEEN-20), then blocked with 3% BSA at 37° C. for 1.5 h, and then washed twice with PBST. Then, the antibody to be tested was diluted to 50 nM, 5 nM, 0.5 nM, 0.05 nM, and added to the wells coated with EGFR his tag protein or EGFR-V3-his tag antigen at 100 µL/well, respectively. The antibody was diluted to 2000 nM, 200 nM, 20 nM, 2 nM, and added to the wells coated with EGFR his tag protein or EGFR-V3-his tag antigen at 100 µL/well, respectively. The ELISA plates were incubated at 37° C. for 1 h. The plates were then washed three times with PBST, and then 100 μL HRP labeled Goat anti human IgG Fc antibody (1:10000, Bethyl) was added into each well, and incubated at 37° C. for another 40 min. After washing the plates four times with PBST, 100 μL of TMB substrate was added to each well, and the reaction was allowed to proceed for 3-5 min. The reaction was stopped by adding 100 μL of 3N hydrochloric acid per well. After stopping the reaction, the optical density at 450/650 nm was measured using a Tecan microplate reader.

Experiment [8] addresses T4, human EGFR.His antigen (Acro, Cat …). Kind of experiment: ELISA: EGFR his tag protein coated at 1 µg/mL, antibody at 50, 5, 0.5, 0.05 nM, HRP goat anti-human IgG Fc, OD450. The procedure: as §3, with “After washing the plates four times with PBST, 100 μL of TMB substrate was added to each well, and the reaction was allowed to proceed for 3-5 min. The reaction was stopped by adding 100 μL of 3N hydrochloric acid per well.” left out

Experiment [9] concerns the target T7, EGFR-D4 (F481-S645, P00533-1 (uniprot)) his tag antigen (human, UniProt P00533 481-645).
T7 construct: range 481-645; also called IV domain protein; EGFR-D4 protein; not shown: His tag
As to the kind of experiment: ELISA: EGFR-D4 his tag antigen coated at 0.5 µg/mL, antibody at 2000, 200, 20, 2 nM, HRP goat anti-human IgG Fc, OD450. As to the method: as §3

Experiment [10] addresses T3, EGFR on SKOV3 and Aspc-1 tumor cells. Kind of experiment: flow cytometry on Aspc-1 tumor cells, anti-human IgG PE, MFI, curve fit; unit from the concentration axis and paragraph 62; no upper plateau within the range shown [table]. As to the method:
as §2

Experiment [11] shares this target. Kind of experiment: flow cytometry on SKOV3 tumor cells, anti-human IgG PE, MFI, curve fit; unit from the concentration axis and paragraph 62 [table]. As to the method: as §2

We go through three molecules from US20250215092A1 (ZHEJIANG NANOMAB TECHNOLOGY CENTER, published 2025).

B1: E001 VHH-IgG4 antibody (antibody, V domains shown, not shown: a dimerising Fc or GST)
VH: EVQLVESGGGLVQPGGSLRLSCTPSGSGFTIQAMTWYRQAPGKQRELVAIIHQGGSTDYSDSVRGRFTISRDNAKTAWYLQMNNLKPEDTAVYYCNVVPPLRVWGQGTQVTVSS
As a reminder, the EC50 is the concentration that produces a half-maximal response. As a reminder, the Kd is the equilibrium constant for the complex coming apart. A lower Kd goes with tighter binding. For orientation: koff means the rate constant with which the complex falls apart. A high value points to fast dissociation. What is called kon is the second-order rate constant of association. Read a low kon as slower complex formation. For B1, the results for the OD450 in experiment [1] and in experiment [2] were 3.3 OD450 and 0.76 OD450, respectively. Further, the EC50 is 74 nM in [3], 0.32 nM in experiment [5] and 58 nM in [6]. This molecule also showed a Kd in experiment [4] of 0.206 nM. This molecule also had an off-rate constant (koff) in [4] of 1.2e-05 s⁻¹. Further, in [4], the association rate constant (kon) came to 57900 M⁻¹ s⁻¹. The binding result in [7] is listed as “no binding (tested: 2000 nM)”.

B2: E009 VHH-IgG4 antibody (antibody, V domains shown, not shown: a dimerising Fc or GST)
VH: QVQLVESGGGLVQPGGSLRLSCEASGRIDIIFTMGWYRQTPGNEREFVASVTNYNAKYADSVKGRFTISRENTENTAYLQMNSLKPEDTAIYVCHLNYASDYTEYDYYGQGTQVTVSS
Turning to B2, the OD450 in [1] was determined as 3.36 OD450; in experiment [2], 0.08 OD450. Besides, the binding result in experiment [8] is given as “binds”; in experiment [9], “no binding (tested: 2000 nM)”; in experiment [7] it was “binds”.

B3: E006 VHH-IgG4 antibody (antibody, V domains shown, not shown: a dimerising Fc or GST)
VH: EVQLVESGGGLVQPGGSLRLSCTASGFTFDTYTTSWERQAPGKEREMVAVLATTGGKPYYVESVKGRFTISRDASETAVTLQMNNLKPEDTAVYYCKATSRSPVNPHNYSGQGTLVTVSS
For the molecule B3, the OD450 in experiment [1] came out at 3.3 OD450; in experiment [2] it was 3.13 OD450. Binding in experiment [4] was put at a Kd of 6.82 nM. In experiment [4], this molecule showed a koff of 0.000255 s⁻¹. In [4], this molecule displayed an on-rate constant (kon) of 37400 M⁻¹ s⁻¹. The results for the EC50 in experiment [5], in [10] and in experiment [11] were 0.5 nM, 12 nM and 11 nM, respectively. Further, in experiment [7], the binding result is reported as “no binding (tested: 2000 nM)”.
